Drawing on patent publication US20200407449A1, this text covers OD for two molecules.

In the test the target is T1, mouse VISTA-Fc (mouse) (UniProt Q9D659).
T1 sequence (looked up): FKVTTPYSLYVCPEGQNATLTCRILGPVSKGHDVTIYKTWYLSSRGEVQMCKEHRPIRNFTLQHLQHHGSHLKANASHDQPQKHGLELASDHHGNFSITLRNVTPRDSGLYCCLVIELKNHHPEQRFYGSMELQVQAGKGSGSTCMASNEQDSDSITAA
Put plainly: monoclonal scFv phage ELISA, plate coated with 1 ug/ml VISTA-Fc, anti-M13-HRP.

B1: 3C5 monoclonal scFv phage (scFv, V domains shown)
VH: QVQLVQSGAEVKKPGASVKLSCKASGYTFSSYWMHWVRQAPGQRLEWMGEINPGNGHTNYNEKFKSRVTITVDKSASTAYMELSSLRSEDTAVYYCAKDIAYYDFWSGDAFDLWGQGTMVTVSS
VL: SYELTQPLSVSVSPGQTASITCSGDKLGNKYASWYQQKPGQSPVLVIYQDNKRPSGIPERFSGSNSGNTATLTISGTQATDEADYYCQTWDRSTGVFGTGTKVTVLG
B1 displayed an OD of 0.106 OD.

B2: 1A12 monoclonal scFv phage (scFv, V domains shown)
VH: QMQLVESGGGLVEPGRSLRLSCTTSGFSFHDYTMYWVRQVPGKGLEWVSLISWDGTITFYADPVRGRFTISRDNSKNSLYLQMNSLRAEDTAVYYCAKEDRYDYYSGAFDIWGQGTVVTVSS
VL: QSALTQPRSVSGSPGQSVTISCTGTSSDVGGYDYVSWYQQHPGKAPKLILNDVNKRPSGVPDRFSGSKSGNTASLTISGLQPDDEADYYCSSFAGSNTLRVFGGGTKLTVLG
In turn, B2 gave an OD of 0.08 OD.
